# Laboratory results published in the RNAGym collection of RNA variant scans (doi:10.1073/pnas.2313332121).
# B1: TPR t1 (parent)
# chain: GACCAAUCUGCCCUCAGAGCUCGAGAACAUCUUCGGAUGCAGAGGAGGCAGGCUUCGGUGGCGCGAUAGCGCCAACGUCCUCAACCUCCAAUGCAUCCCACCACAUGAUGAUGCCUGAAGAGCCUUGGUUUUUUG
# Variants of: B1
# Test: polymerase ribozyme fitness, log enrichment relative to wild type (log ratio); higher = more active; in vitro selection for triplet polymerase activity
# Procedure, shortened: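 Mutant libraries were PCR-built and transcribed for each subunit of a heterodimeric triplet polymerase ribozyme and selected for one round in triplicate at −7 °C, frozen, before gel excision of extended constructs and streptavidin-bead capture. Input and output libraries were Illumina-sequenced, keeping genotypes with ≥10 input reads and ≥1 read per output. Fitness is a logarithmic ratio of genotype to wild-type enrichment, in base 2, using inverse-variance-weighted replicate averages.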
row,Variant,polymerase ribozyme fitness (log ratio)
1,C53A C56G C70U U132A,-0.0503
2,G51A U87A C101A,-4.9
3,C53U C85U,-1.78
4,G52A G61A U132A,-0.488
5,C53A C86U,-0.0407
6,C53A C73A U78G G110U,-0.702
7,G51A U96A,-4.59
8,G52U U54A G63A C115A,-0.839
9,G51C U59A C82U C98U,-5.66
10,G51U U87C C123A,-2.59
11,A50U A84G A111C,-4.92
12,C53G G127U,-1.46
13,C53U C72A A90U C101A,-2.92
14,G51U G52A,-4.95
15,G52A G135U,-1.86
16,C53G G57A A66G C70A G113U,-7.08
17,C53U A103U U116C G117U A118C,-5.82
18,G52A U109A,-5.76
19,G52A C114A,-2.73
20,G52A C114U,-2.52
21,G52A C98U,-1.13

row,Variant,polymerase ribozyme fitness (log ratio)
1,C53U A90U C101A,-2.09
2,C53U C72G G113C U129A,-4.76
3,C53G C104U C114U G120U C123G C124A,-0.873
4,G52A G63U C114A,-3.58
5,G52A C124U,0.924
6,C53G A119U G127C,-1.2
7,G52U C88G A118U,-0.0981
8,G52U G61C C124G U131G,-1.09
9,G51A U112G,-3.74
10,G51A U112C,-2.05
11,C53G C70A G117A,-3.42
12,A50U C56A C82G U87G G117A U132A,-4.26
13,C53A G69U U78G C82A,-0.279
14,C53A U92G A95U,-2.44
15,C53G A68G U87G,-4.16
16,C53U C56G C101A A121C G135C,0.621
17,C53G G120A,0.668
18,G51C A100U,-5.07
19,A50U C62U C80U A84G A95U,-6.37
20,C53A G61C U78C C85U G93A,-0.976
21,G51C G60A A111G,-4.94

row,Variant,polymerase ribozyme fitness (log ratio)
1,C53U C80A U131A,-5.6
2,C53A A74U A95C G120A,-0.291
3,G51U G61C U87C C123A,-4.21
4,C53G U81A U131G,-0.825
5,G52A G69U U78A C89U G128U,-2.93
6,G51A C56A G93A C114U G117U,-6.47
7,G52C C64U A84U C104A U112A,-1.62
8,C53A G69C G77U U96A G117A,-5.87
9,C53A C85A G135U,-2.53
10,C53A G60A C72U A100U G120C C123G,-0.938
11,C53G U87G G127U U133G,-0.973
12,G52U G57C C97G C114A A119U,-6.02
13,G51A A66U C104G A105U A121G,-7.62
14,A50C G117C,-3.5
15,G51C C72A,-3.1
16,A50G G113U U131A,-4.11
17,C53U A91U,-2.05
18,C53G A119U C123A,-1.16
19,C53U C62U A111U A118U,-3.63
20,C53U C64G C73U A90C U112G,-7.28
21,G51A C56G C124U,-1.06

row,Variant,polymerase ribozyme fitness (log ratio)
1,A50U C64U,-0.813
2,C53A A66G C123U,0.367
3,G52U G61C U131A,-1.22
4,G52U G60U C73U U96G A121G,-0.386
5,C53U C82A A121C,1.33
6,G52A A90C A100U A111G,-2.82
7,C53G G61A C88A A111U U112G C124A,-1
8,G51C C53G G61U,-2.56
9,C53A C85A G117A U125G,-3.17
10,G51A C53A U133A,-2.17
11,C53U A105C G120C G122A U129A,-5.42
12,C53U A75G A84U,-0.747
13,C53A G63A C124U U129C U134G,1.57
14,C53A U116G,-1.78
15,C53G G63A A95G G110A U125C,-4.78
16,C53A U133G,-0.187
17,A50U G61C C88U G113C,-5.11
18,C53U C79A C85U C88U,-2.08
19,A50U U81A A100C,-1.2
20,G51A U106A,-2.35
21,G51U C76A U106A,-2
